Laboratory results from patent US9029097.

Biological target: β2AR-Rluc (human; Renilla reniformis) (UniProt P07550)
Experiment: BRET2, living HEK293T cells, Iso, untagged Gβ1γ2 co-expressed

Substance: Gαs-GFP10
- agonist-promoted increase in BRET: 68%
